In publication PMC11737846 one finds stoichiometry N data, which are given here for one substance.

For this experiment, the target named is recombinant hemolysin co-regulated protein 1 variant B (rHcp1^(variant B)) of Burkholderia pseudomallei (Burkholderia pseudomallei (clinical isolate DR0089)). Nature of the experiment: […]) at 10 mg/ml in PBS pH 7.2; […].

Regarding “recombinant hemolysin co-regulated protein 1 variant B (rHcp1^(variant B)) of Burkholderia pseudomallei (natural protein)”, the stoichiometry N worked out at 6.

Broadly, the stoichiometry N is a count of units in the complex or per binding partner.
